Experimental findings from patent publication US20150140169 are described below.

This data set concerns the target T1, alpha-s1 casein from Bos taurus.
T1 chain: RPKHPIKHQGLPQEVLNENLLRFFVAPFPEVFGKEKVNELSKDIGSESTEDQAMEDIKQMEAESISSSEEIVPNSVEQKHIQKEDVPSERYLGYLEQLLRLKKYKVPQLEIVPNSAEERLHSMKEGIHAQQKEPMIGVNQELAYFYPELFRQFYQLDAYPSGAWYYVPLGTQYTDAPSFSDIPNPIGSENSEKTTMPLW

Where a chain is given by its changes, count along the chain named. Numbers in names are those of the source.

B1: Chymax M (recombinant camel chymosin) (protein)
chain: GKVAREPLTSYLDSQYFGKIYIGTPPQEFTVVFDTGSSDLWVPSIYCKSNVCKNHHRFDPRKSSTFRNLGKPLSIHYGTGSMEGFLGYDTVTVSNIVDPNQTVGLSTEQPGEVFTYSEFDGILGLAYPSLASEYSVPVFDNMMDRHLVARDLFSVYMDRNGQGSMLTLGAIDPSYYTGSLHWVPVTLQQYWQFTVDSVTINGVAVACVGGCQAILDTGTSVLFGPSSDILKIQMAIGATENRYGEFDVNCGNLRSMPTVVFEINGRDYPLSPSAYTSKDQGFCTSGFQGDNNSELWILGDVFIREYYSVFDRANNRVGLAKAI
In the case of B1, the (αSN1-1)/(αSN1), 6 hours, 11° C. (average) stood at 0.5; the (αSN1-1)/(αSN1), 24 hours, 11° C. (average) was 1.2; the “hydrolysis of the first cut in alpha-s1-casein” value (“hydrolysis of the first cut” below) was “shows a slow first cut in alpha-s1 casein”; the small, 6 hours, 11° C. was 0 Volume. The same protein displayed a small, 16 hours, 30° C. of 9e+06 Volume; a small, 24 hours, 11° C. of 1.1e+07 Volume; a αs1-I CN, 6 hours, 11° C. of 1.28e+07 Volume; a αs1-I CN, 6 hours, 11° C. (average) of 1.81e+07 Volume. The αs1-I CN, 16 hours, 30° C. came out at 4.3e+06 Volume; the αs1-I CN, 24 hours, 11° C. was found to be 1.62e+07 Volume; the αs1-I CN, 24 hours, 11° C. (average) was determined as 2.13e+07 Volume; the αs1-I CN/αs1 CN, 6 hours, 11° C. was 0.5. This protein registered a αs1-I CN/αs1 CN, 24 hours, 11° C. of 1.3; a αs1 CN, 6 hours, 11° C. of 2.73e+07 Volume; a αs1 CN, 6 hours, 11° C. (average) of 3.52e+07 Volume; a αs1 CN, 16 hours, 30° C. of 0 Volume. This protein also returned a αs1 CN, 24 hours, 11° C. of 1.25e+07 Volume and a αs1 CN, 24 hours, 11° C. (average) of 1.73e+07 Volume.

B2: camel chymosin variant #165 (L295W) (protein)
chain: B1 chain with L295W
On to B2, for which the (αSN1-1)/(αSN1), 6 hours, 11° C. was 1.5; the (αSN1-1)/(αSN1), 24 hours, 11° C. came out at 6.7; the αs1-I CN, 6 hours, 11° C. stood at 3.09e+07 Volume; the αs1-I CN, 24 hours, 11° C. came to 3.78e+07 Volume. In addition, the αs1 CN, 6 hours, 11° C. came to 2.12e+07 Volume and the αs1 CN, 24 hours, 11° C. is 5.7e+06 Volume.

B3: camel chymosin variant #160 (L295K) (protein)
chain: B1 chain with L295K
As to B3, the (αSN1-1)/(αSN1), 6 hours, 11° C. worked out at 0.6; the (αSN1-1)/(αSN1), 24 hours, 11° C. was 2.1; the αs1-I CN, 6 hours, 11° C. stood at 1.81e+07 Volume; the αs1-I CN, 24 hours, 11° C. was determined as 2.49e+07 Volume. The αs1 CN, 6 hours, 11° C. was determined as 2.95e+07 Volume and the αs1 CN, 24 hours, 11° C. was determined as 1.2e+07 Volume.

B4: camel chymosin variant #167 (I297V) (protein)
chain: B1 chain with I297V
B4: the (αSN1-1)/(αSN1), 6 hours, 11° C. was determined as 0.7; the (αSN1-1)/(αSN1), 24 hours, 11° C. came to 2.9; the αs1-I CN, 6 hours, 11° C. came to 2.02e+07 Volume; the αs1-I CN, 24 hours, 11° C. was 2.29e+07 Volume. The protein also returned a αs1 CN, 6 hours, 11° C. of 2.73e+07 Volume and a αs1 CN, 24 hours, 11° C. of 8e+06 Volume.

B5: camel chymosin variant #164 (L295Y) (protein)
chain: B1 chain with L295Y
For B5, the (αSN1-1)/(αSN1), 6 hours, 11° C. was determined as 0.6; the (αSN1-1)/(αSN1), 24 hours, 11° C. worked out at 1.8; the αs1-I CN, 6 hours, 11° C. was 1.59e+07 Volume; the αs1-I CN, 24 hours, 11° C. is 2.66e+07 Volume. The αs1 CN, 6 hours, 11° C. amounted to 2.49e+07 Volume and the αs1 CN, 24 hours, 11° C. came to 1.49e+07 Volume.

B6: camel chymosin variant #159 (L295I) (protein)
chain: B1 chain with L295I
On to B6, for which the (αSN1-1)/(αSN1), 6 hours, 11° C. turned out to be 0.6; the (αSN1-1)/(αSN1), 24 hours, 11° C. was 1.8; the αs1-I CN, 6 hours, 11° C. was determined as 1.7e+07 Volume; the αs1-I CN, 24 hours, 11° C. worked out at 1.97e+07 Volume. Besides, the αs1 CN, 6 hours, 11° C. was 2.95e+07 Volume and the αs1 CN, 24 hours, 11° C. came to 1.11e+07 Volume.

B7: camel chymosin variant #163 (L295T) (protein)
chain: B1 chain with L295T
In the case of B7, the (αSN1-1)/(αSN1), 6 hours, 11° C. was 0.5; the (αSN1-1)/(αSN1), 24 hours, 11° C. was determined as 1.6; the αs1-I CN, 6 hours, 11° C. came out at 1.48e+07 Volume; the αs1-I CN, 24 hours, 11° C. is 1.79e+07 Volume. The protein further displayed a αs1 CN, 6 hours, 11° C. of 2.79e+07 Volume and a αs1 CN, 24 hours, 11° C. of 1.14e+07 Volume.

B8: camel chymosin variant #161 (L295M) (protein)
chain: B1 chain with L295M
In turn, B8 came in with a (αSN1-1)/(αSN1), 6 hours, 11° C. of 0.6; a (αSN1-1)/(αSN1), 24 hours, 11° C. of 2; a αs1-I CN, 6 hours, 11° C. of 1.96e+07 Volume; a αs1-I CN, 24 hours, 11° C. of 2.23e+07 Volume. The αs1 CN, 6 hours, 11° C. is 3.15e+07 Volume and the αs1 CN, 24 hours, 11° C. amounted to 1.1e+07 Volume.

B9: camel chymosin variant #166 (I297T) (protein)
chain: B1 chain with I297T
In turn, B9 yielded a (αSN1-1)/(αSN1), 6 hours, 11° C. of 0.9; a (αSN1-1)/(αSN1), 24 hours, 11° C. of 3.1; a αs1-I CN, 6 hours, 11° C. of 1.8e+07 Volume; a αs1-I CN, 24 hours, 11° C. of 1.33e+07 Volume. The protein further gave a αs1 CN, 6 hours, 11° C. of 2.1e+07 Volume and a αs1 CN, 24 hours, 11° C. of 4.2e+06 Volume.

B10: camel chymosin variant #157 (D290T) (protein)
chain: B1 chain with D290T
As for B10, the (αSN1-1)/(αSN1), 6 hours, 11° C. amounted to 0.6; the (αSN1-1)/(αSN1), 24 hours, 11° C. was 1.7; the αs1-I CN, 6 hours, 11° C. was 1.76e+07 Volume; the αs1-I CN, 24 hours, 11° C. was 2.38e+07 Volume. The protein further yielded a αs1 CN, 6 hours, 11° C. of 3.07e+07 Volume and a αs1 CN, 24 hours, 11° C. of 1.36e+07 Volume.

B11: camel chymosin variant #158 (L295F) (protein)
chain: B1 chain with L295F
B11: the (αSN1-1)/(αSN1), 6 hours, 11° C. was 0.7; the (αSN1-1)/(αSN1), 24 hours, 11° C. turned out to be 2.3; the αs1-I CN, 6 hours, 11° C. was found to be 1.95e+07 Volume; the αs1-I CN, 24 hours, 11° C. was determined as 2.22e+07 Volume. The αs1 CN, 6 hours, 11° C. is 2.63e+07 Volume and the αs1 CN, 24 hours, 11° C. came to 9.8e+06 Volume.

B12: camel chymosin variant #156 (D290S) (protein)
chain: B1 chain with D290S
B12 gave a (αSN1-1)/(αSN1), 6 hours, 11° C. of 0.5; a (αSN1-1)/(αSN1), 24 hours, 11° C. of 1.9; a αs1-I CN, 6 hours, 11° C. of 1.7e+07 Volume; a αs1-I CN, 24 hours, 11° C. of 3.16e+07 Volume. The αs1 CN, 6 hours, 11° C. amounted to 3.15e+07 Volume and the αs1 CN, 24 hours, 11° C. came out at 1.71e+07 Volume.

B13: camel chymosin variant #162 (L295R) (protein)
chain: B1 chain with L295R
B13 had a (αSN1-1)/(αSN1), 6 hours, 11° C. of 0.5; a (αSN1-1)/(αSN1), 24 hours, 11° C. of 1.9; a αs1-I CN, 6 hours, 11° C. of 1.65e+07 Volume; a αs1-I CN, 24 hours, 11° C. of 3.1e+07 Volume. The αs1 CN, 6 hours, 11° C. was 3.09e+07 Volume and the αs1 CN, 24 hours, 11° C. is 1.67e+07 Volume.

B14: bovine chymosin B variant #6 (K221M) (protein)
chain: GEVASVPLTNYLDSQYFGKIYLGTPPQEFTVLFDTGSSDFWVPSIYCKSNACKNHQRFDPRKSSTFQNLGKPLSIHYGTGSMQGILGYDTVTVSNIVDIQQTVGLSTQEPGDVFTYAEFDGILGMAYPSLASEYSIPVFDNMMNRHLVAQDLFSVYMDRNGQESMLTLGAIDPSYYTGSLHWVPVTVQQYWQFTVDSVTISGVVVACEGGCQAILDTGTSMLVGPSSDILNIQQAIGATQNQYGEFDIDCDNLSYMPTVVFEINGKMYPLTPSAYTSQDQGFCTSGFQSENHSQKWILGDVFIREYYSVFDRANNLVGLAKAI
B14: the “hydrolysis of the first cut” value is “show a clear hydrolysis of the first cut in alpha-s1-casein, leading to a rapid formation of fragment alpha-s1-I casein”; the small, 6 hours, 11° C. worked out at 0 Volume; the small, 24 hours, 11° C. amounted to 4.3e+06 Volume; the αs1-I CN, 6 hours, 11° C. was determined as 1.89e+07 Volume. This protein came in with a αs1-I CN, 24 hours, 11° C. of 2.22e+07 Volume; a αs1-I CN/αs1 CN, 6 hours, 11° C. of 1; a αs1-I CN/αs1 CN, 24 hours, 11° C. of 4.3; a αs1 CN, 6 hours, 11° C. of 1.81e+07 Volume. The αs1 CN, 24 hours, 11° C. turned out to be 5.1e+06 Volume.

B15: bovine chymosin B variant #71 (A51V, K221V) (protein)
chain: B14 chain with A51V, M221V
For the protein B15, the “hydrolysis of the first cut” value is reported as “show a clear hydrolysis of the first cut in alpha-s1-casein, leading to a rapid formation of fragment alpha-s1-I casein”; the small, 6 hours, 11° C. stood at 0 Volume; the small, 16 hours, 30° C. is 2.4e+06 Volume; the small, 24 hours, 11° C. was found to be 0 Volume. This protein came in with a αs1-I CN, 6 hours, 11° C. of 2.54e+07 Volume; a αs1-I CN, 16 hours, 30° C. of 1.97e+07 Volume; a αs1-I CN, 24 hours, 11° C. of 2.46e+07 Volume; a αs1-I CN/αs1 CN, 6 hours, 11° C. of 2.9. The protein also had a αs1-I CN/αs1 CN, 24 hours, 11° C. of 9.8; a αs1 CN, 6 hours, 11° C. of 8.8e+06 Volume; a αs1 CN, 16 hours, 30° C. of 1.6e+06 Volume; a αs1 CN, 24 hours, 11° C. of 2.5e+06 Volume.

B16: bovine chymosin B variant #7 (K221V) (protein)
chain: B14 chain with M221V
Consider B16, for which the “hydrolysis of the first cut” value is given as “show a clear hydrolysis of the first cut in alpha-s1-casein, leading to a rapid formation of fragment alpha-s1-I casein”; the small, 6 hours, 11° C. came to 0 Volume; the small, 24 hours, 11° C. stood at 1.05e+07 Volume; the αs1-I CN, 6 hours, 11° C. is 2.28e+07 Volume. Also, the αs1-I CN, 24 hours, 11° C. amounted to 1.82e+07 Volume; the αs1-I CN/αs1 CN, 6 hours, 11° C. is 2.1; the αs1-I CN/αs1 CN, 24 hours, 11° C. came to 6.4; the αs1 CN, 6 hours, 11° C. stood at 1.07e+07 Volume. The αs1 CN, 24 hours, 11° C. turned out to be 2.8e+06 Volume.
